Results reported in patent publication US20240003871A1, “IPSC-DERIVED ASTROCYTES AND METHODS OF USE THEREOF” (FUJIFILM Cellular Dynamics, Inc., priority 2022, published 2024).

B1: IL-1alpha: pro-inflammatory cytokine used to stimulate astrocytes (protein, UniProt P01583 113-271, looked up)
Interleukin-1 alpha: SAPFSFLSNVKYNFMRIIKYEFILNDALNQSIIRANDQYLTAAALHNLDEAVKFDMGAYKSSKDDAKITVILRISKTQLYVTAQDEDQPVLLKEMPEIPKTITGSETNLLFFWETHGTKNYFTSVAHPNLFIATKQDYWVCLAGGPPSITDFQILENQA
B2: IFN-gamma: cytokine used to stimulate astrocytes (protein, UniProt P01579 24-161, looked up)
Interferon gamma: QDPYVKEAENLKKYFNAGHSDVADNGTLFLGILKNWKEESDRKIMQSQIVSFYFKLFKNFKDDQSIQKSVETIKEDMNVKFFNSNKKKRDDFEKLTNYSVTDLNVQRKAIHELIQVMAELSPAAKTGKRKRSQMLFRG

Tested on: Astrocytes
Test: Luminex assay of proteins secreted by astrocytes after cytokine stimulation
Format: cell-based, human
Conditions: stimulation in basal medium for 24 hours; average of four lots
Method: FIGS. 8A-8J: Astrocytes from four lots were thawed and cultured for 7 days in Astro 3 media, before stimulation in basal medium for 24 hours. Supernatant was collected and assayed using a custom Luminex assay from R&D on the FLEXMAP 3D instrument, according to manufacturer's instructions. Each condition was run in duplicate, with the average of all four lots compared to the control (unstimulated) condition to calculate fold change. Error bars are +/−1 SEM. […] The combination of IFN-gamma with TNF-alpha produced the highest fold-change over control, with over 84-fold secretion of IL-1ra compared to control. IL-1ra binds to cell surface IL-1 receptors, blocking binding of pro-inflammatory IL-1alpha and IL-1beta. […] TNF-alpha combined with either IL-1alpha or IL-1beta increased IL-6 secretion by over 3300-fold compared to control. IL-6 attracts pro-inflammatory T cells and promotes demyelination. […] TNF-alpha combined with either IL-1alpha or IL-1beta increased IL-8 secretion by over 12,000-fold compared to control. IL-8/CXCL8 is secreted by astrocytes to attract pro-inflammatory immune cells after insults. This analyte also plays a role in recruitment and differentiation of oligodendrocyte precursor cells (OPCs) to promote remyelination. […] TNF-alpha alone, or combined with IL-1alpha, IL-1beta or IFN-gamma increased IL-10 secretion by over 1000-fold compared to control. IL-10 is secreted by astrocytes to reduce iNos activity and reduce astrogliosis. […] TNF-alpha alone, or combined with IL-1alpha, IL-1beta or IFN-gamma increased CCL5/RANTES secretion by over 2500-fold compared to control. CCL5/RANTES controls the movements of peripheral immune cells. […] TNF-alpha combined with IL-1alpha or IL-1beta increased CCL7 secretion by over 15,000-fold compared to control. CCL7 is important for astrocyte-microglia interactions and induces microglia activation. […] Stimulation with IL-1alpha or TNF-alpha alone increased CCL20 secretion by over 18-fold over unstimulated control. TNF-alpha combined with IL-1alpha, IL-1beta or IFN-gamma increased CCL20 secretion by over 100-fold compared to control. CCL20 is secreted by astrocytes in response to pro-inflammatory stimuli and attracts T-cells, B-cells and DCs. […] Stimulation with IL-1alpha increased CXCL1 secretion by 84-fold over unstimulated control. TNF-alpha combined with IL-1alpha or IL-1beta increased CXCL1 secretion by over 450-fold compared to control. CXCL1 is secreted by astrocytes to recruit neutrophils to the site of infection, and increases BBB permeability. […] CXCL2 activates CXCR2, found on oligodendrocytes and OPCs, which increases OPC proliferation and differentiation. […] CXCL5 is secreted by astrocytes in response to injury and activates microglia, resulting in decreased microglia phagocytosis and inhibition.
Astrocytes from four lots were thawed and cultured for 7 days in Astro 3 media, before stimulation in basal medium for 24 hours. Supernatant was collected and assayed using a custom Luminex assay from R&D on the FLEXMAP 3D instrument, according to manufacturer's instructions. […] The combination of IFN-gamma with TNF-alpha produced the highest fold-change over control, with over 84-fold secretion of IL-1ra compared to control. IL-1ra binds to cell surface IL-1 receptors, blocking binding of pro-inflammatory IL-1alpha and IL-1beta.

| Molecule | CCL7 secretion, fold change over unstimulated control | IL-1ra secretion, fold change over unstimulated control | IL-8/CXCL8 secretion, fold change over unstimulated control | CCL5/RANTES secretion, fold change over unstimulated control | CXCL1 secretion, fold change over unstimulated control | CXCL2 secretion, fold change over unstimulated control | CXCL5 secretion, fold change over unstimulated control | IL-6 secretion, fold change over unstimulated control | IL-10 secretion, fold change over unstimulated control |
| --- | --- | --- | --- | --- | --- | --- | --- | --- | --- |
| TNF-alpha | 1184 fold | three | 898 fold | – | – | – | – | – | – |
| B1 | 2177 fold | three | over 3300 fold | 156 fold | 84 fold | 379 fold | 161 fold | over 400 fold | over 415 fold |
| B2 | – | robust secretion | – | – | – | – | – | 32 fold | 161 fold |
